The record followed here is the RNAGym collection of RNA variant scans (doi:10.7554/elife.80360).

The labels stand for the following.
B1: CPEB3 Ribozyme (parent)
chain: GGGGGCCACAGCAGAAGCGUUCACGUCGCGGCCCCUGUCAGAUUCUGGUGAAUCUGCGAAUUCUGCUGU

The variants in the data set derive from B1. Description: self-cleavage, relative activity (ratio to wild type); higher = more cleavage; co-transcriptional.
Take G1A G25U: the self-cleavage turned out to be 0.076. For G1U C35G the value was 0.0241; for G1U C39G, 0.103; for G2A G28C, 0.0268.

On to G1U A13C, for which the self-cleavage worked out at 0.0972.

For the variant G1U A13G, the self-cleavage is 0.0953. Turning to G2A G19C, the self-cleavage was 0.0616. Regarding G1A U53C, the self-cleavage was determined as 0.0532. For G1A U53G the value was 0.0671; for G1A U53A, 0.0419; for G1C U64G, 0.204.

Regarding G2U U21C, the self-cleavage stood at 0.0789. For G1A G28A, the self-cleavage came to 0.0534. With G1U G37U the figure was 0.0468; with G1U G37C, 0.0508; with G2U C9U, 0.176. Consider G1C U67G, for which the self-cleavage turned out to be 0.312. In the case of G1A U38A, the self-cleavage was 0.0918. Regarding G1A U38G, the self-cleavage was found to be 0.0274.

Regarding G2U A15G, the self-cleavage stood at 0.0981. G2U A51C: the self-cleavage is 0.102. Take G1U U46C: the self-cleavage came out at 0.0797. With G2A U38G the figure was 0.0237; with G1C C18U, 0.167; with G1C C18G, 0.0551. G1C C18A: the self-cleavage came to 0.035. With G2U G30A the figure was 0.0872; with G2U G30C, 0.0703; with G2C U69G, 0.0519. Turning to G2U G41C, the self-cleavage was 0.0505. Turning to G2U G41U, the self-cleavage came to 0.0665. For G1C U49A the value was 0.287. For G2C U38A the value was 0.0483. With G2C G5U the figure was 0.0585; with G2C G5C, 0.0267. As for G2U A10G, the self-cleavage came out at 0.116.

With G2U A10U, the self-cleavage came out at 0.138. For G1C A51G, the self-cleavage is 0.18. With G2C A52U the figure was 0.0375; with G2C A52G, 0.0291; with G1C U46G, 0.234. For G1C U46A the value was 0.208. With G2U U38C, the self-cleavage worked out at 0.095. For G2U U38A the value was 0.0631; for G1A U62C, 0.033; for G1A U62G, 0.0371. For G1U C18A the value was 0.0311; for G1U C7U, 0.0859; for G1C A42U, 0.2. With G1U A16G, the self-cleavage amounted to 0.108. With G1U A16U the figure was 0.103; with G2U C18U, 0.0941; with G2U C18A, 0.0495. Consider G1U G19U, for which the self-cleavage worked out at 0.0505. For G1U G19C the value was 0.0611; for G2C U55A, 0.0429; for G2C C39A, 0.108.

As for G2C C39G, the self-cleavage was 0.0347. G1U C12A: the self-cleavage amounted to 0.0761. For G2C G68U the value was 0.0864. For G2U A40G the value was 0.0279; for G2C C18G, 0.0398; for G1C A40U, 0.195.

Turning to G2C G48A, the self-cleavage worked out at 0.0788. For G2U U20A the value was 0.0261; for G1U G58A, 0.0859; for G1C U21A, 0.246.

G1C U53C: the self-cleavage was found to be 0.0726. With G1A G58U the figure was 0.0885. In the case of G2C C22G, the self-cleavage worked out at 0.02. As to G2U A59G, the self-cleavage was determined as 0.0714.

As for G1U C34U, the self-cleavage was 0.147. With G1C A10U the figure was 0.209; with G1C A10C, 0.23; with G1U G47C, 0.0959. With G2U C63G the figure was 0.102. With G2U C63U the figure was 0.117; with G2U C63A, 0.127. As to G2C U20G, the self-cleavage came to 0.0688.

Regarding G2A U69C, the self-cleavage amounted to 0.457. With G1U U21A the figure was 0.054; with G2A A42G, 0.196; with G2A C22A, 0.0696. For the variant G2C C12A, the self-cleavage is 0.0486. With G2U A16C the figure was 0.0327; with G2U A16G, 0.0825; with G2C G47U, 0.0378.

For the variant G2C G47A, the self-cleavage came to 0.0652. For G2C A8G the value was 0.0226; for G1A U49C, 0.0571. For G2C G17U the value was 0.0711; for G2C C54G, 0.0261; for G1C G5C, 0.15.

Take G1C G5A: the self-cleavage amounted to 0.272. For the variant G1U A10G, the self-cleavage was 0.0897. For G1U A10C the value was 0.186; for G1C G19U, 0.166; for G1C G19C, 0.126. In the case of G2U G14A, the self-cleavage was determined as 0.0496. For G1C C24U the value was 0.203; for G1C C24G, 0.118; for G2C C9U, 0.0977. With G2A U49A the figure was 0.179; with G1U U38A, 0.0964.

On to G2C G14U, for which the self-cleavage turned out to be 0.0531. G2A C12U: the self-cleavage came out at 0.201. With G2A C12A the figure was 0.0566. In the case of G1U A40U, the self-cleavage came to 0.0879.

Take G1U A40G: the self-cleavage was 0.0819. G2C A59G: the self-cleavage came out at 0.106. With G2C G58A the figure was 0.0591; with G1C A60U, 0.179; with G2A A60U, 0.0695. For G2A A60G the value was 0.0573; for G2A A13U, 0.121; for G2U G37C, 0.0385. As to G1U G11U, the self-cleavage is 0.129.

Consider G1U G11C, for which the self-cleavage stood at 0.118. Regarding G2A A8C, the self-cleavage is 0.194. With G2C G50A the figure was 0.0951; with G2U U46G, 0.0727; with G2A A40C, 0.0341. As to G2A A40G, the self-cleavage came to 0.105.

As for G1U A52C, the self-cleavage is 0.112. For G2U A13G the value was 0.0748. Consider G2U G50A, for which the self-cleavage is 0.0766. With G2U U61G the figure was 0.112. With G2U U61A the figure was 0.0837. For G1C C7U the value was 0.172. On to G2U G17U, for which the self-cleavage was found to be 0.039. Consider G2U G17C, for which the self-cleavage came to 0.0396. Consider G2A C54G, for which the self-cleavage amounted to 0.0929. For the variant G1C C39A, the self-cleavage was 0.174. For G2C C35U the value was 0.0408. Turning to G1A G41A, the self-cleavage amounted to 0.0513. With G1C U62C the figure was 0.264; with G2U G47A, 0.0706. With G2A G47U the figure was 0.276; with G1U A60G, 0.128; with G1U A60U, 0.033.

With G1U C24A, the self-cleavage was 0.0939. Turning to G1U C24U, the self-cleavage came to 0.0825.

As to G2U G11C, the self-cleavage came to 0.0923. With G1A U55G, the self-cleavage amounted to 0.0876. Take G2C U43G: the self-cleavage came out at 0.0524. Regarding G1A G50C, the self-cleavage was determined as 0.115. As to G1U U53C, the self-cleavage was 0.143. With G1U A23C the figure was 0.171; with G1U A23G, 0.141.

G2U U49G: the self-cleavage is 0.0431. For G2U U49C the value was 0.0667; for G2U U49A, 0.0944.

Turning to G1U U69C, the self-cleavage is 0.284. For G2C G41A the value was 0.0552; for G2U G3U, 0.0485. In the case of G2A G65A, the self-cleavage was found to be 0.163.

As for G1C U55G, the self-cleavage stood at 0.135. With G2C C24U the figure was 0.0323; with G2A U20C, 0.0328.

With G2A U20A, the self-cleavage stood at 0.0398. For G1A G30U the value was 0.0869; for G2C G3U, 0.0339; for G2C C34G, 0.0583. Turning to G2U C57U, the self-cleavage turned out to be 0.0179.

As to G2A G41C, the self-cleavage was determined as 0.0676. G1C G37A: the self-cleavage came to 0.157. For G2A C34G the value was 0.03.
